# According to PMC9482650, “Quantitative fragmentomics allow affinity mapping of interactomes” (Nature Communications, 2022):
# B1: GUCY1A2, P33402 (peptide)
# chain: GTMFLRETSL
# B2: SLC15A2, Q16348 (peptide)
# chain: IKLETKKTKL
# Target: GRIP2_3, Q9C0E4
# Assay: holdup assay
# Parameters: key: below the threshold = too weak to quantify, mostly under pKd 3.1 to 4
# Details: plain residues with an end cap or a label only (N-terminal biotin on a linker: ado-ado)
# Chain of GRIP2_3, Q9C0E4 (Q9C0E4 238-339): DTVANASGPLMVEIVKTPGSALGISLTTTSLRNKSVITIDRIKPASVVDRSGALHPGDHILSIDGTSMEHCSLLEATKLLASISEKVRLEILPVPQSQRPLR
row,Binder,pKd
1,B1,below the threshold
2,B2,below the threshold

# Target: T1, GRIP1_2, Q9Y3R0
# T1 sequence (Q9Y3R0 145-248, limits assumed, looked up): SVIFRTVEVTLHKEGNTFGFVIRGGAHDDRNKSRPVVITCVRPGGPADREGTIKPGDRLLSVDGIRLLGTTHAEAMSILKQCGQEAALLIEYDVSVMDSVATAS
# Assay: holdup assay
# Parameters: key: below the threshold = too weak to quantify, mostly under pKd 3.1 to 4
# Details: plain residues with an end cap or a label only (N-terminal biotin on a linker: ado-ado)
row,Binder,pKd
1,B1,below the threshold
2,B2,below the threshold

# Target: T2, SNTA1, Q13424
# T2 sequence (Q13424 82-180, limits assumed, looked up): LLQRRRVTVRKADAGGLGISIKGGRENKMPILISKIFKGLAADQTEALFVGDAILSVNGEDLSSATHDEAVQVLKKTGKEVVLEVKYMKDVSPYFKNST
# Assay: holdup assay
# Parameters: key: below the threshold = too weak to quantify, mostly under pKd 3.1 to 4
# Details: plain residues with an end cap or a label only (N-terminal biotin on a linker: ado-ado)
row,Binder,pKd
1,B1,5.64
2,B2,3.59

# Target: PTPN3, P26045
# Sequence (P26045 505-587): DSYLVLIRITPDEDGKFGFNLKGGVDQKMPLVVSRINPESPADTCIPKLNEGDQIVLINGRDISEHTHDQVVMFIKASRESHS
# Assay: holdup assay
# Parameters: key: below the threshold = too weak to quantify, mostly under pKd 3.1 to 4
# Details: plain residues with an end cap or a label only (N-terminal biotin on a linker: ado-ado)
row,Binder,pKd
1,B1,5.04
2,B2,below the threshold

# Target: T3, CARD11, Q9BXL7
# T3 sequence (Q9BXL7 662-765, limits assumed, looked up): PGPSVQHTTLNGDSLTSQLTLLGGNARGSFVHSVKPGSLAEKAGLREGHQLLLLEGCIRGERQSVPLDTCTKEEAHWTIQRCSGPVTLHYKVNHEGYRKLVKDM
# Assay: holdup assay
# Parameters: key: below the threshold = too weak to quantify, mostly under pKd 3.1 to 4
# Details: plain residues with an end cap or a label only (N-terminal biotin on a linker: ado-ado)
row,Binder,pKd
1,B1,below the threshold
2,B2,below the threshold

# Target: T4, SIPA1L2, Q9P2F8
# T4 sequence (Q9P2F8 945-1036, limits assumed, looked up): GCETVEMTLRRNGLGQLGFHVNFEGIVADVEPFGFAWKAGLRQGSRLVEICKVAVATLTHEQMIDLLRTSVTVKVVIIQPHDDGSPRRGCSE
# Assay: holdup assay
# Parameters: key: below the threshold = too weak to quantify, mostly under pKd 3.1 to 4
# Details: plain residues with an end cap or a label only (N-terminal biotin on a linker: ado-ado)
row,Binder,pKd
1,B1,below the threshold
2,B2,3.62

# Target: MAGI2_4, Q86UL8
# Sequence (Q86UL8 772-865): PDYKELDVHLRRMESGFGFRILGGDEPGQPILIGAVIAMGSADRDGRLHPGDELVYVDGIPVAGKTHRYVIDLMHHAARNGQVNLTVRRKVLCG
# Assay: holdup assay
# Parameters: key: below the threshold = too weak to quantify, mostly under pKd 3.1 to 4
# Details: plain residues with an end cap or a label only (N-terminal biotin on a linker: ado-ado)
row,Binder,pKd
1,B1,below the threshold
2,B2,below the threshold

# Target: T5, NHERF3_3, Q5T2W1
# T5 sequence (Q5T2W1 238-333, limits assumed, looked up): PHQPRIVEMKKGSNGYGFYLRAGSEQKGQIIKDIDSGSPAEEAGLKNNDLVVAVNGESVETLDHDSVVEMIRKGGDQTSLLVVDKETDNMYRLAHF
# Assay: holdup assay
# Parameters: key: below the threshold = too weak to quantify, mostly under pKd 3.1 to 4
# Details: plain residues with an end cap or a label only (N-terminal biotin on a linker: ado-ado)
row,Binder,pKd
1,B1,below the threshold
2,B2,4.67

# Target: LNX1_3, Q8TBB1
# Sequence (Q8TBB1 500-596): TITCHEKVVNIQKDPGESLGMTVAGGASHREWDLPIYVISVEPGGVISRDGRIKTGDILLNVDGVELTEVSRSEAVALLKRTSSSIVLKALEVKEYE
# Assay: holdup assay
# Parameters: key: below the threshold = too weak to quantify, mostly under pKd 3.1 to 4
# Details: plain residues with an end cap or a label only (N-terminal biotin on a linker: ado-ado)
row,Binder,pKd
1,B1,below the threshold
2,B2,below the threshold

# Target: NHERF4_2, Q86UT5
# Sequence (Q86UT5 220-308): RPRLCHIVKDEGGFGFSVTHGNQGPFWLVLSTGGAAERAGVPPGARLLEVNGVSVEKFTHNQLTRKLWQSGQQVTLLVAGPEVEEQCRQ
# Assay: holdup assay
# Parameters: key: below the threshold = too weak to quantify, mostly under pKd 3.1 to 4
# Details: plain residues with an end cap or a label only (N-terminal biotin on a linker: ado-ado)
row,Binder,pKd
1,B1,below the threshold
2,B2,3.63

# Target: SCRIB_2, Q14160
# Sequence (Q14160 857-960): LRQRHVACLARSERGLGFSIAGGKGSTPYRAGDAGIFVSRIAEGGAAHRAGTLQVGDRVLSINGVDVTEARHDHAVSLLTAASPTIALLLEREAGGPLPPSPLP
# Assay: holdup assay
# Parameters: key: below the threshold = too weak to quantify, mostly under pKd 3.1 to 4
# Details: plain residues with an end cap or a label only (N-terminal biotin on a linker: ado-ado)
row,Binder,pKd
1,B1,5.15
2,B2,below the threshold

# Target: T6, NHERF3_4, Q5T2W1
# T6 sequence (Q5T2W1 373-468, limits assumed, looked up): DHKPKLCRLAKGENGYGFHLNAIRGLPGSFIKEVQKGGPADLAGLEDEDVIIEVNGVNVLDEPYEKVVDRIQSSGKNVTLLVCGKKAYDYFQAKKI
# Assay: holdup assay
# Parameters: key: below the threshold = too weak to quantify, mostly under pKd 3.1 to 4
# Details: plain residues with an end cap or a label only (N-terminal biotin on a linker: ado-ado)
row,Binder,pKd
1,B1,4.38
2,B2,4.77

# Target: GOPC, Q9HD26
# Assay: holdup assay
# Parameters: key: below the threshold = too weak to quantify, mostly under pKd 3.1 to 4
# Details: plain residues with an end cap or a label only (N-terminal biotin on a linker: ado-ado)
row,Binder,pKd
1,B1,4.43
2,B2,4.29

# Target: FRMPD2_1, Q68DX3
# Sequence (Q68DX3 770-861): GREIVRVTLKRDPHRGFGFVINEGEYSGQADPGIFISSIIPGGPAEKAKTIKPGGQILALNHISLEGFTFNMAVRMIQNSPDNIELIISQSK
# Assay: holdup assay
# Parameters: key: below the threshold = too weak to quantify, mostly under pKd 3.1 to 4
# Details: plain residues with an end cap or a label only (N-terminal biotin on a linker: ado-ado)
row,Binder,pKd
1,B1,below the threshold
2,B2,below the threshold

# Target: Inadl_5, Q8NI35
# Sequence (Q8NI35 673-780): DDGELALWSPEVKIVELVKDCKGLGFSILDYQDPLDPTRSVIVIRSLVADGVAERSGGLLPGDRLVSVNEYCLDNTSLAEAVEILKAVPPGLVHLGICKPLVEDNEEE
# Assay: holdup assay
# Parameters: key: below the threshold = too weak to quantify, mostly under pKd 3.1 to 4
# Details: plain residues with an end cap or a label only (N-terminal biotin on a linker: ado-ado)
row,Binder,pKd
1,B1,below the threshold
2,B2,3.48

# Target: LDB3, O75112
# Sequence (O75112 1-94): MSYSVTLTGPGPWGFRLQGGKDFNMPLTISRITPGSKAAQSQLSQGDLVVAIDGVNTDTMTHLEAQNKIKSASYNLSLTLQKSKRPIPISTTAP
# Assay: holdup assay
# Parameters: key: below the threshold = too weak to quantify, mostly under pKd 3.1 to 4
# Details: plain residues with an end cap or a label only (N-terminal biotin on a linker: ado-ado)
row,Binder,pKd
1,B1,below the threshold
2,B2,below the threshold

# Target: T7, HTRA4, P83105
# T7 sequence (P83105 378-476, limits assumed, looked up): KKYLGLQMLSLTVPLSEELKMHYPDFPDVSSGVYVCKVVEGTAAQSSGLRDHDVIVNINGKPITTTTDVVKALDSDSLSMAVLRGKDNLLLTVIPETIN
# Assay: holdup assay
# Parameters: key: below the threshold = too weak to quantify, mostly under pKd 3.1 to 4
# Details: plain residues with an end cap or a label only (N-terminal biotin on a linker: ado-ado)
row,Binder,pKd
1,B1,3.85
2,B2,3.99

# Target: Inadl_6, Q8NI35
# Sequence (Q8NI35 1058-1167): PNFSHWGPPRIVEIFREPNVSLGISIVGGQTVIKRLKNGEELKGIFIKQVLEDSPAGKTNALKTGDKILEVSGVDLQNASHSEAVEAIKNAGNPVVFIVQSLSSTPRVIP
# Assay: holdup assay
# Parameters: key: below the threshold = too weak to quantify, mostly under pKd 3.1 to 4
# Details: plain residues with an end cap or a label only (N-terminal biotin on a linker: ado-ado)
row,Binder,pKd
1,B1,4.84
2,B2,below the threshold

# Target: T8, SNTG1, Q9NSN8
# T8 sequence (Q9NSN8 52-150, limits assumed, looked up): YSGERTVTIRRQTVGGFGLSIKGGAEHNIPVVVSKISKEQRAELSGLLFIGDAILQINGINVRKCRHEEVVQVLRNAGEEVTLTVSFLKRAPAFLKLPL
# Assay: holdup assay
# Parameters: key: below the threshold = too weak to quantify, mostly under pKd 3.1 to 4
# Details: plain residues with an end cap or a label only (N-terminal biotin on a linker: ado-ado)
row,Binder,pKd
1,B1,5.09
2,B2,3.64

# Target: PICK1, Q9NRD5
# Sequence (Q9NRD5 17-115): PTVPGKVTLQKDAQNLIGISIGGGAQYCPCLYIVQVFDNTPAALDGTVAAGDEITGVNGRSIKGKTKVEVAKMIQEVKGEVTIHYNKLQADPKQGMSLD
# Assay: holdup assay
# Parameters: key: below the threshold = too weak to quantify, mostly under pKd 3.1 to 4
# Details: plain residues with an end cap or a label only (N-terminal biotin on a linker: ado-ado)
row,Binder,pKd
1,B1,4.12
2,B2,below the threshold

# Target: GRIP2_4, Q9C0E4
# Sequence (Q9C0E4 446-548): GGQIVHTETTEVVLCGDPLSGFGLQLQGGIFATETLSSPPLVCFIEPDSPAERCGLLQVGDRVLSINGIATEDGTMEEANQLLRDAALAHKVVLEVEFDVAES
# Assay: holdup assay
# Parameters: key: below the threshold = too weak to quantify, mostly under pKd 3.1 to 4
# Details: plain residues with an end cap or a label only (N-terminal biotin on a linker: ado-ado)
row,Binder,pKd
1,B1,below the threshold
2,B2,below the threshold

# Target: DLG2_2, Q15700
# Sequence (Q15700 189-283): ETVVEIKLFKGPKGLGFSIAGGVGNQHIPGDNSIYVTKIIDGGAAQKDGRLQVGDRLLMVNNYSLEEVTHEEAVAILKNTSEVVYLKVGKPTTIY
# Assay: holdup assay
# Parameters: key: below the threshold = too weak to quantify, mostly under pKd 3.1 to 4
# Details: plain residues with an end cap or a label only (N-terminal biotin on a linker: ado-ado)
row,Binder,pKd
1,B1,4.23
2,B2,3.66

# Target: T9, PDZD2_2, O15018
# T9 sequence (O15018 329-429, limits assumed, looked up): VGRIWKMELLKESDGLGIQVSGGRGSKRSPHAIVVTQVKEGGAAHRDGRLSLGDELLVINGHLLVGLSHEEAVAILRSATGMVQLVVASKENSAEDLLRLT
# Assay: holdup assay
# Parameters: key: below the threshold = too weak to quantify, mostly under pKd 3.1 to 4
# Details: plain residues with an end cap or a label only (N-terminal biotin on a linker: ado-ado)
row,Binder,pKd
1,B1,below the threshold
2,B2,below the threshold

# Target: CASK, O14936
# Sequence (O14936 487-570): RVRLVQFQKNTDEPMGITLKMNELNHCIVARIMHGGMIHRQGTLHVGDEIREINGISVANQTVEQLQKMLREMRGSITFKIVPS
# Assay: holdup assay
# Parameters: key: below the threshold = too weak to quantify, mostly under pKd 3.1 to 4
# Details: plain residues with an end cap or a label only (N-terminal biotin on a linker: ado-ado)
row,Binder,pKd
1,B1,below the threshold
2,B2,below the threshold

# Target: MAGI2_3, Q86UL8
# Sequence (Q86UL8 600-682): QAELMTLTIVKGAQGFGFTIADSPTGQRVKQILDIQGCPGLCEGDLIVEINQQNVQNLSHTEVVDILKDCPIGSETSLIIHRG
# Assay: holdup assay
# Parameters: key: below the threshold = too weak to quantify, mostly under pKd 3.1 to 4
# Details: plain residues with an end cap or a label only (N-terminal biotin on a linker: ado-ado)
row,Binder,pKd
1,B1,3.71
2,B2,3.6

# Target: T10, TJP3_3, O95049
# T10 sequence (O95049 375-456, limits assumed, looked up): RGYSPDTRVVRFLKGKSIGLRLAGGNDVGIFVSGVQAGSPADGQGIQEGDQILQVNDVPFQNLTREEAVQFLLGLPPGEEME
# Assay: holdup assay
# Parameters: key: below the threshold = too weak to quantify, mostly under pKd 3.1 to 4
# Details: plain residues with an end cap or a label only (N-terminal biotin on a linker: ado-ado)
row,Binder,pKd
1,B1,below the threshold
2,B2,below the threshold

# Target: MAGI2_5, Q86UL8
# Sequence (Q86UL8 915-1017): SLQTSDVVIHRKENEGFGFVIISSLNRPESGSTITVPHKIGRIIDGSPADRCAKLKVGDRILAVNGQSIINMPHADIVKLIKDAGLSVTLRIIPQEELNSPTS
# Assay: holdup assay
# Parameters: key: below the threshold = too weak to quantify, mostly under pKd 3.1 to 4
# Details: plain residues with an end cap or a label only (N-terminal biotin on a linker: ado-ado)
row,Binder,pKd
1,B1,3.98
2,B2,3.6

# Target: HTRA1, Q92743
# Sequence (Q92743 360-477): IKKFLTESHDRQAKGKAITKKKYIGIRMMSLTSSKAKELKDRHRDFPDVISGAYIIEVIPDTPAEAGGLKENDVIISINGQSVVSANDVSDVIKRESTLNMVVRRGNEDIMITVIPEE
# Assay: holdup assay
# Parameters: key: below the threshold = too weak to quantify, mostly under pKd 3.1 to 4
# Details: plain residues with an end cap or a label only (N-terminal biotin on a linker: ado-ado)
row,Binder,pKd
1,B1,3.77
2,B2,below the threshold

# Target: MAST1, Q9Y2H9
# Sequence (Q9Y2H9 962-1065): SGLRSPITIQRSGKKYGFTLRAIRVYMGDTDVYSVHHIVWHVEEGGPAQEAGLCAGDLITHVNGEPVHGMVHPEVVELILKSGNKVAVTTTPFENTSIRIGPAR
# Assay: holdup assay
# Parameters: key: below the threshold = too weak to quantify, mostly under pKd 3.1 to 4
# Details: plain residues with an end cap or a label only (N-terminal biotin on a linker: ado-ado)
row,Binder,pKd
1,B1,5.08
2,B2,4.86
